Reduction of infectivity of Mab WT (CFU) in THP-1 cells pre-incubated with 2 μg soluble AhpC-His, against untreated cells or cells pre-incubated with Hsp16.7-His data for one substance are collected here from article PMC9929602.

The experiment concerns the target tetraspanin CD81 (human (endogenous in THP-1)) (UniProt P60033).
Chain of UniProt P60033 (P60033 whole entry): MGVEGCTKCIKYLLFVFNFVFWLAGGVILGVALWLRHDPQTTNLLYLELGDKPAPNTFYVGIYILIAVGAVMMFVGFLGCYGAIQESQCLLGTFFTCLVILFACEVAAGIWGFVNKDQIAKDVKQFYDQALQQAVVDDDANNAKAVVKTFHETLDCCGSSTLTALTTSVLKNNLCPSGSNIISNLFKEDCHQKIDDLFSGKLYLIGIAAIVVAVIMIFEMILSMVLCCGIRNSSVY

Consider “AhpC-6×His (recombinant M. abscessus AhpC) (enzyme)”, for which the reduction of infectivity of Mab WT (CFU) in THP-1 cells pre-incubated with 2 μg soluble AhpC-His, against untreated cells or cells pre-incubated with Hsp16.7-His was 30%.
